Source: article PMC9262599, “DNA G-quadruplex structure participates in regulation of lipid metabolism through acyl-CoA binding protein”

How the values were obtained:
BmLARK [1] = target: T1, BmLARK (Bombyx mori, UniProt Q5I7M6 1-343); assay: EMSA; 50 mM K+; 10 mM Tris pH 7.5, 50 mM KCl, 1 mM DTT, room temperature, 20 min; 2 uM probe, 2 ug BmLARK or 1 ug BG4 in 20 ul; 4% PAGE on ice; conditions: protein: recombinant; tags: GST (pGEX-6P-1); label: 5' 6-FAM
BmLARK [2] = target: T1, BmLARK; assay: EMSA; 50 mM K+; reduced by unlabelled same-sequence competitor; 10 mM Tris pH 7.5, 50 mM KCl, 1 mM DTT, room temperature, 20 min; 2 uM probe, 2 ug BmLARK or 1 ug BG4 in 20 ul; 4% PAGE on ice; conditions: protein: recombinant; tags: GST (pGEX-6P-1); label: 5' 6-FAM; G-quadruplex

T1 sequence (Q5I7M6 entry or part of it): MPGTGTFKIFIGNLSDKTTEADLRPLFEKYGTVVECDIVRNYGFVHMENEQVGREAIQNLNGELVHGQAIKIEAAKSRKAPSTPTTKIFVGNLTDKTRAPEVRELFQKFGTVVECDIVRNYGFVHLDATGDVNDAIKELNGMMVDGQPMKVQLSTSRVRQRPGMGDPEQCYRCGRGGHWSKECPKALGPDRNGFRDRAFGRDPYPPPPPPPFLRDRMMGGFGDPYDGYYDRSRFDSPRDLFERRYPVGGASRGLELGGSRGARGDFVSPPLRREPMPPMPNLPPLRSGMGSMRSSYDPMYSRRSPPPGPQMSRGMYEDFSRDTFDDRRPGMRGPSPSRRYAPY

Row | Binder | binding result (BmLARK [1]) | binding result (BmLARK [2])
1 | GTCGTGAAGGTGTTGATGGAGTGTAGGTT (ssDNA) [FAM-Mut BmACBP G4] | no binding | –
2 | GTCGGGAAGGGGTTGGGGGGGGGTAGGTT (structured_DNA) [FAM-BmACBP G4 (folded with K+)] | – | binds
